Each block holds one binder with its values, some of them ahead of it.
Biological target: T1, STING-HA (Sting cDNA with a C-terminal HA tag, stably expressed in p53-/- MEFs) (mouse, UniProt Q3TBT3 1-378)
T1 construct: not shown: C-terminal HA tag added by PCR
T1 sequence (looked up): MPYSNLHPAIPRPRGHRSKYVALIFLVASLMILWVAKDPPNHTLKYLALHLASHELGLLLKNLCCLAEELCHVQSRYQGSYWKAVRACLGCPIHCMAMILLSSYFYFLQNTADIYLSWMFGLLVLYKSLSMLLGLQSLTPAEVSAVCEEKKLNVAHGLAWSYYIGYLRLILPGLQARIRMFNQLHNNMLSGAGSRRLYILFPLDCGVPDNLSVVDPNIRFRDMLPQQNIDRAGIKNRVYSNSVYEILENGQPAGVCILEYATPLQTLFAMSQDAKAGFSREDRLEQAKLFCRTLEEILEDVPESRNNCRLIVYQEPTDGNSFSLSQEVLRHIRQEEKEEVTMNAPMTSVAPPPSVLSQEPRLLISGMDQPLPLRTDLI
Assay: anti-HA immunoprecipitation of STING-HA from MEF lysate, SILAC mass spectrometry
Protocol: Light (L) and heavy (H) isotope-labeled p53−/− MEFs mock infected (L) or stably expressing Sting-HA (H) were stimulated with 1000 U/mL IFNβ for 18 h. H cells were transfected with ISD for 2.5 h. Cells were lysed in 0.2% NP-40 buffer (above), and insoluble proteins were removed by centrifugation. 18 mg of each lysate was mixed with 1 ug/mL anti-HA antibody and Protein G beads (Pierce), and rotated for 2.5 h at 4° C. Beads were pelleted and washed extensively with wash buffer (above). The two samples were mixed, cysteines were reduced by DTT and alkylated with iodoacetamide, and proteins were eluted by heating in SDS sample buffer (Life Technologies) for 10 min before separation on a 4-12% gradient gel. The whole gel lane was cut into 8 slices, proteins were digested inside the gel with trypsin, and peptides were extracted from the gel as described4. Extracted peptides were purified with StageTips5 and analyzed with a 100 min acquisition method on a Thermo EASY-nLC 1000 UHPLC coupled to a Q Exactive mass spectrometer. […] All proteins were identified with at least 2 or more unique peptides and quantified with 3 or more ratios. […] To identify significant interactions, P-values were calculated via Gaussian modeling of the log(H/L) data, and proteins with P<0.05 were designated as candidates for siRNA screening.

binding result: no binding
B1: HMGB2 (other, mouse, UniProt P30681 1-210, looked up)
chain: MGKGDPNKPRGKMSSYAFFVQTCREEHKKKHPDSSVNFAEFSKKCSERWKTMSAKEKSKFEDLAKSDKARYDREMKNYVPPKGDKKGKKKDPNAPKRPPSAFFLFCSENRPKIKIEHPGLSIGDTAKKLGEMWSEQSAKDKQPYEQKAAKLKEKYEKDIAAYRAKGKSEAGKKGPGRPTGSKKKNEPEDEEEEEEEEEEEDDEEEEEDEE
notes: Endogenous protein co-precipitated from MEF lysates

binding result: no binding
B2: ANP32A (other, mouse, UniProt O35381 1-247, looked up)
chain: MEMDKRIYLELRNRTPSDVKELVLDNCKSIEGKIEGLTDEFEELEFLSTINVGLTSISNLPKLNKLKKLELSENRISGDLEVLAEKCPNLKHLNLSGNKIKDLSTIEPLKKLENLKSLDLFNCEVTNLNAYRENVFKLLPQVMYLDGYDRDNKEAPDSDVEGYVEDDDEEDEDEEEYDEYAQLVEDEEEEDEEEEGEEEDVSGEEEEDEEGYNDGEVDDEEDEEEAGEEEGSQKRKREPDDEGEEDD
notes: as for B1

Reference: patent US20150202223A1 (GENERAL HOSPITAL, published 2015)
